“And” between values parts separate entries of the source, which are not always exact repeats. Equal entries are not always repeated.
Key:
[1] = system: Cultured control human myoblasts; experiment: Beta-defensin 3 and innate immune response, real-time qPCR of IFIH1, ISG20, DEFB103; format: cell-based
Description: Cultured control human myoblasts were grown to 80% confluence and infected with equivalent titers of lenti-GFP, lenti-DUX4-s and lenti-DUX4-fl in growth media supplemented with 8 μg/mL polybrene. Expression of innate immune responsive genes including IFIH1 (MDA5), ISG20 and DEFB103 were assessed by real-time qPCR as previously described at 24 hours (primer sequences below). For conditioned media, cells were infected with lenti-DUX4-fl for 12 hours, thoroughly washed 3 times with PBS and switched to fresh growth media to condition for 12 hours. Control conditioned media was produced from cells not infected with any lentivirus. Myoblasts were infected with lenti-GFP in either control conditioned media, lenti-DUX4-fl conditioned media or regular growth media supplemented with 1 μM human β-defensin 3 (Peptides International, Louisville, Ky.). Expression of innate immune responsive genes were examined after 24 hours.

[2] = system: Cultured primary muscle cells; experiment: Beta-defensin 3 and myotube formation, immunostaining for myosin heavy chain; format: cell-based; conditions: 0.5 uM, 72 hours in differentiation medium
Description: Cultured primary muscle cells were cultured in differentiation medium for 72 hours in the presence or absence of 0.5 uM Human β-defensin 3.

[3] = system: Cultured control myoblasts; experiment: Beta-defensin 3 on myoblasts in growth media, expression arrays and MSTN qPCR; format: cell-based, human
Description: Cultured control myoblasts were grown at 50% confluence and treated with 1 μM human β-defensin 3. Equivalent volume of vehicle (water) was added to myoblasts for the control condition. Quadruplicate samples of control- and DEFB103-treated myoblasts were assessed for global expression changes on HumanHT-12 v4 Expression BeadChip Whole Genome arrays and analyzed as described in main methods. Differential expression of myostatin (MSTN) was confirmed by real-time qPCR.

[4] = system: control myoblasts in differentiation media
Description: Cultured control myoblasts were grown to confluence and switched to differentiation media (as described in Snider et al., 2010). 24 hours later, media was refreshed and either supplemented with 1 μM human β-defensin 3 or equivalent volume of water. Media was refreshed again at 48 hours. Cells were differentiated for a total of 72 hours. Quadruplicate samples were analyzed by expression microarrays as described above.

B1: DEFB103: human β-defensin 3 peptide (Peptides International), polypeptide SEQ ID NO:178 (peptide, listed as Homo sapiens)
chain: MRIHYLLFALLFLFLVPVPGHGGIINTLQKYYCRVRGGRCAVLSCLPKEEQIGKCSTRGRKCCRRKK
induction of innate immune genes by lenti-GFP ([1]; RT-qPCR of IFIH1 and ISG20, FIG. 8): inhibited the induction of the innate immune response to lenti-GFP
viral entry and transduction ([1]; copies of viral integrants and GFP mRNA): did not prevent viral entry and transduction
muscle cell fusion and myosin heavy chain expression [2]: inhibits muscle cell fusion and expression of myosin heavy chain
mRNA for myostatin ([3]; RT-qPCR, myoblasts): increased the mRNA for myostatin
gene expression changes in myoblasts ([3]; expression arrays, 2-fold change threshold): did not alter the expression of any genes
myostatin upregulation ([3]; expression arrays, myoblasts): approximately 50%
log2 FC defMT/MT, CYP2J2 [4]: −1.05
expression of muscle differentiation genes (ACTA1, CKM, CASQ2, MYH2, TNNT3) ([4]; RT-qPCR, FIG. 11): inhibits the expression of genes necessary for normal muscle differentiation
number of genes with reduced expression ([4]; differentiating muscle cells vs untreated control): 44 genes
log2 FC defMT/MT, ACTA1 ([4]; gene ACTA1, log2 ratio of expression in DEFB103 treated muscle cells compared to control muscle cells, differentiation media): −2.65
log2 FC defMT/MT, AIF1L ([4]; gene AIF1L, DEFB103 treated vs control differentiating muscle cells): −1.16
log2 FC defMT/MT, AKR1C2 ([4]; gene AKR1C2, DEFB103 treated vs control differentiating muscle cells): 1.41
log2 FC defMT/MT, ANGPTL4 ([4]; gene ANGPTL4, DEFB103 treated vs control differentiating muscle cells): 1.21
log2 FC defMT/MT, ARPP-21 ([4]; gene ARPP-21, DEFB103 treated vs control differentiating muscle cells): −1.06
log2 FC defMT/MT, ATP2A2 ([4]; gene ATP2A2, DEFB103 treated vs control differentiating muscle cells): −1.04
log2 FC defMT/MT, CACNG1 ([4]; gene CACNG1, DEFB103 treated vs control differentiating muscle cells): −1.58
log2 FC defMT/MT, CASQ2 ([4]; gene CASQ2, DEFB103 treated vs control differentiating muscle cells): −2.00
log2 FC defMT/MT, CKB ([4]; gene CKB, DEFB103 treated vs control differentiating muscle cells): −1.16
log2 FC defMT/MT, CKM ([4]; gene CKM, DEFB103 treated vs control differentiating muscle cells): −1.90
log2 FC defMT/MT, CTGF ([4]; gene CTGF, DEFB103 treated vs control differentiating muscle cells): −1.12
log2 FC defMT/MT, DKK1 ([4]; gene DKK1, DEFB103 treated vs control differentiating muscle cells): 1.22
log2 FC defMT/MT, ENO3 ([4]; gene ENO3 (two array entries), DEFB103 treated vs control differentiating muscle cells): −1.51 and −1.47
log2 FC defMT/MT, FOLR1 ([4]; gene FOLR1 (two array entries), DEFB103 treated vs control differentiating muscle cells): −1.10 and −1.03
log2 FC defMT/MT, HBEGF ([4]; gene HBEGF, DEFB103 treated vs control differentiating muscle cells): −1.10
log2 FC defMT/MT, HES6 ([4]; gene HES6, DEFB103 treated vs control differentiating muscle cells): −1.24
log2 FC defMT/MT, HFE2 ([4]; gene HFE2, DEFB103 treated vs control differentiating muscle cells): −1.04
log2 FC defMT/MT, HMOX1 ([4]; gene HMOX1, DEFB103 treated vs control differentiating muscle cells): 1.66
log2 FC defMT/MT, HRC ([4]; gene HRC, DEFB103 treated vs control differentiating muscle cells): −1.40
log2 FC defMT/MT, IL32 ([4]; gene IL32, DEFB103 treated vs control differentiating muscle cells): −1.03
log2 FC defMT/MT, LMCD1 ([4]; gene LMCD1, DEFB103 treated vs control differentiating muscle cells): −1.03
log2 FC defMT/MT, LOC389827 ([4]; gene LOC389827 (two array entries), DEFB103 treated vs control differentiating muscle cells): −1.48 and −1.38
log2 FC defMT/MT, MME ([4]; gene MME, DEFB103 treated vs control differentiating muscle cells): 1.27
log2 FC defMT/MT, MT1X ([4]; gene MT1X, DEFB103 treated vs control differentiating muscle cells): 1.65
log2 FC defMT/MT, MYBPH ([4]; gene MYBPH, DEFB103 treated vs control differentiating muscle cells): −1.49
log2 FC defMT/MT, MYH3 ([4]; gene MYH3, DEFB103 treated vs control differentiating muscle cells): −2.20
log2 FC defMT/MT, MYH7 ([4]; gene MYH7, DEFB103 treated vs control differentiating muscle cells): −1.73
log2 FC defMT/MT, MYH8 ([4]; gene MYH8, DEFB103 treated vs control differentiating muscle cells): −2.62
log2 FC defMT/MT, MYL1 ([4]; gene MYL1 (two array entries), DEFB103 treated vs control differentiating muscle cells): −1.18 and −1.11
log2 FC defMT/MT, MYL6B ([4]; gene MYL6B, DEFB103 treated vs control differentiating muscle cells): −1.00
log2 FC defMT/MT, MYLPF ([4]; gene MYLPF, DEFB103 treated vs control differentiating muscle cells): −1.53
log2 FC defMT/MT, MYOM1 ([4]; gene MYOM1, DEFB103 treated vs control differentiating muscle cells): −1.20
log2 FC defMT/MT, NDRG1 ([4]; gene NDRG1, DEFB103 treated vs control differentiating muscle cells): 1.01
log2 FC defMT/MT, PLIN2 ([4]; gene PLIN2 (two array entries), DEFB103 treated vs control differentiating muscle cells): 1.61 and 1.79
log2 FC defMT/MT, PRAGMIN ([4]; gene PRAGMIN, DEFB103 treated vs control differentiating muscle cells): −1.10
log2 FC defMT/MT, RASSF4 ([4]; gene RASSF4, DEFB103 treated vs control differentiating muscle cells): −1.03
log2 FC defMT/MT, SMPX ([4]; gene SMPX, DEFB103 treated vs control differentiating muscle cells): −1.76
log2 FC defMT/MT, SMYD1 ([4]; gene SMYD1, DEFB103 treated vs control differentiating muscle cells): −1.07
log2 FC defMT/MT, TNNC1 ([4]; gene TNNC1, DEFB103 treated vs control differentiating muscle cells): −1.45
log2 FC defMT/MT, TNNC2 ([4]; gene TNNC2, DEFB103 treated vs control differentiating muscle cells): −1.49
log2 FC defMT/MT, TNNT1 ([4]; gene TNNT1, DEFB103 treated vs control differentiating muscle cells): −1.00
log2 FC defMT/MT, TNNT3 ([4]; gene TNNT3 (two array entries), DEFB103 treated vs control differentiating muscle cells): −1.55 and −1.52
log2 FC defMT/MT, TPM2 ([4]; gene TPM2, DEFB103 treated vs control differentiating muscle cells): −1.41
log2 FC defMT/MT, VASH2 ([4]; gene VASH2, DEFB103 treated vs control differentiating muscle cells): −1.22
log2 FC defMT/MT, ZFP106 ([4]; gene ZFP106, DEFB103 treated vs control differentiating muscle cells): −1.09

Source: patent publication US20140242093A1, “METHODS AND COMPOSITIONS FOR MODULATING THE INNATE IMMUNE RESPONSE AND/OR MYOGENESIS IN A MAMMALIAN SUBJECT” (FRED HUTCHINSON CANCER RESEARCH CENTER, priority 2011, published 2014)
